From article PMC10786891, “Massively parallel profiling of RNA-targeting CRISPR-Cas13d”
Residue numbers refer to the chain shown, from its start. Names and notes keep the numbering of the source.

B1: target 1 A1U,U10G (mixed)
RNA 1: CACCCGUGCAAAAAUGCAGGGGUCUAAAACUGAGCGGAUAACCUCUCUAUGG
RNA 2: GGGAAUGGAUCCACAUCUACGAAUUCGUACCAUAGAGAGGUGAUCCGCUCUCCGAGAUCGGAAGAGCACACGU
B2: target 1 A1U,U19G (mixed)
RNA 1: B1 RNA 1
RNA 2: B1 RNA 2 with U33G, G42U
B3: target 1 C4U,A14G (mixed)
RNA 1: B1 RNA 1
RNA 2: B1 RNA 2 with A38G, G42U, C48U, U51A
B4: target 1 insG 3' of 19,insU 3' of 1 (mixed)
RNA 1: B1 RNA 1
RNA 2: GGGAAUGGAUCCACAUCUACGAAUUCGUACCAUGAGAGAGGUUAUCCGCUCAUCCGAGAUCGGAAGAGCACACGU
B5: target 1 insA 3' of 22,insU 3' of 15 (mixed)
RNA 1: B1 RNA 1
RNA 2: GGGAAUGGAUCCACAUCUACGAAUUCGUACACAUAGAGUAGGUUAUCCGCUCACCGAGAUCGGAAGAGCACACGU
B6: target 1 insU 3' of 17,insC 3' of 8 (mixed)
RNA 1: B1 RNA 1
RNA 2: B4 RNA 2 with G34A, A35G, G36U, G48C, C49G, U50C, C51U, A52C, U53A
B7: target 1 insU 3' of 12,insU 3' of 4 (mixed)
RNA 1: B1 RNA 1
RNA 2: GGGAAUGGAUCCACAUCUACGAAUUCGUACCAUAGAGAGGUUUAUCCGCUUCACCGAGAUCGGAAGAGCACACGU
B8: target 1 U3C,C6G (mixed)
RNA 1: B1 RNA 1
RNA 2: B1 RNA 2 with G42U, C46G, U49C, U51A
B9: target 1 A9U,A14G (mixed)
RNA 1: B1 RNA 1
RNA 2: B1 RNA 2 with A38G, G42U, A43U, U51A
B10: target 1 insU 3' of 15,insC 3' of 5 (mixed)
RNA 1: B1 RNA 1
RNA 2: B7 RNA 2 with A38U, G39A, U41G, U50C
B11: target 1 insC 3' of 20,insA 3' of 12 (mixed)
RNA 1: B1 RNA 1
RNA 2: B5 RNA 2 with A31C, C32A, A33C, U39A, A40G, G42A
B12: target 1 insA 3' of 7,insU 3' of 7 (mixed)
RNA 1: B1 RNA 1
RNA 2: B7 RNA 2 with U43A, A44U, U45C, C46A, C47U, G48C, C49G, U50C
B13: target 1 A1G,U10G (mixed)
RNA 1: B1 RNA 1
RNA 2: B1 RNA 2 with U51G
B14: target 1 insA 3' of 11,insC 3' of 3 (mixed)
RNA 1: B1 RNA 1
RNA 2: B7 RNA 2 with U42A, U51C
B15: target 1 insA 3' of 13,insA 3' of 3 (mixed)
RNA 1: B1 RNA 1
RNA 2: B7 RNA 2 with G40A, U41G, U51A
B16: target 1 U10G (mixed)
RNA 1: B1 RNA 1
RNA 2: B1 RNA 2 with U51A
B17: target 1 G12A,G17U (mixed)
RNA 1: B1 RNA 1
RNA 2: B1 RNA 2 with G35U, G40A, G42U, U51A
B18: target 1 del18 (mixed)
RNA 1: B1 RNA 1
RNA 2: GGGAAUGGAUCCACAUCUACGAAUUCGUACCAUGAGAGGUUAUCCGCUCACCGAGAUCGGAAGAGCACACGU
B19: target 1 insC 3' of 20,insA 3' of 13 (mixed)
RNA 1: B1 RNA 1
RNA 2: B5 RNA 2 with A31C, C32A, A33C, U39A, A40G, G41A
B20: target 1 U3A,G17U (mixed)
RNA 1: B1 RNA 1
RNA 2: B1 RNA 2 with G35U, G42U, U49A, U51A
B21: target 1 A14G,A16G (mixed)
RNA 1: B1 RNA 1
RNA 2: B1 RNA 2 with A36G, A38G, G42U, U51A
B22: target 1 insA 3' of 17,insG 3' of 2 (mixed)
RNA 1: B1 RNA 1
RNA 2: B4 RNA 2 with G34A, A35G, G36A, A52G, U53A
B23: target 1 insC 3' of 20,insG 3' of 3 (mixed)
RNA 1: B1 RNA 1
RNA 2: B4 RNA 2 with U33C, G34U, C51G, A52C, U53A
B24: target 1 insU 3' of 15,insU 3' of 5 (mixed)
RNA 1: B1 RNA 1
RNA 2: B7 RNA 2 with A38U, G39A, U41G, C49U, U50C
B25: target 1 U10A,G15U (mixed)
RNA 1: B1 RNA 1
RNA 2: B1 RNA 2 with G37U, G42A, U51A
B26: target 1 complement block 5-8 (mixed)
RNA 1: B1 RNA 1
RNA 2: B1 RNA 2 with G42U, U44A, C45G, C46G, G47C, U51A
B27: target 1 insG 3' of 7,insG 3' of 6 (mixed)
RNA 1: B1 RNA 1
RNA 2: B7 RNA 2 with U43A, A44U, U45C, C46G, C49G, U50C
B28: target 1 A1C,U10G (mixed)
RNA 1: B1 RNA 1
RNA 2: B1 RNA 2 with U51C
B29: target 1 U11C,A14G (mixed)
RNA 1: B1 RNA 1
RNA 2: B1 RNA 2 with A38G, U41C, G42U, U51A

Molecular target: T1, EsCas13d, nuclease-dead (Eubacterium siraeum, UniProt B0MS50, R295A;H300A;R849A;H854A)
T1 sequence: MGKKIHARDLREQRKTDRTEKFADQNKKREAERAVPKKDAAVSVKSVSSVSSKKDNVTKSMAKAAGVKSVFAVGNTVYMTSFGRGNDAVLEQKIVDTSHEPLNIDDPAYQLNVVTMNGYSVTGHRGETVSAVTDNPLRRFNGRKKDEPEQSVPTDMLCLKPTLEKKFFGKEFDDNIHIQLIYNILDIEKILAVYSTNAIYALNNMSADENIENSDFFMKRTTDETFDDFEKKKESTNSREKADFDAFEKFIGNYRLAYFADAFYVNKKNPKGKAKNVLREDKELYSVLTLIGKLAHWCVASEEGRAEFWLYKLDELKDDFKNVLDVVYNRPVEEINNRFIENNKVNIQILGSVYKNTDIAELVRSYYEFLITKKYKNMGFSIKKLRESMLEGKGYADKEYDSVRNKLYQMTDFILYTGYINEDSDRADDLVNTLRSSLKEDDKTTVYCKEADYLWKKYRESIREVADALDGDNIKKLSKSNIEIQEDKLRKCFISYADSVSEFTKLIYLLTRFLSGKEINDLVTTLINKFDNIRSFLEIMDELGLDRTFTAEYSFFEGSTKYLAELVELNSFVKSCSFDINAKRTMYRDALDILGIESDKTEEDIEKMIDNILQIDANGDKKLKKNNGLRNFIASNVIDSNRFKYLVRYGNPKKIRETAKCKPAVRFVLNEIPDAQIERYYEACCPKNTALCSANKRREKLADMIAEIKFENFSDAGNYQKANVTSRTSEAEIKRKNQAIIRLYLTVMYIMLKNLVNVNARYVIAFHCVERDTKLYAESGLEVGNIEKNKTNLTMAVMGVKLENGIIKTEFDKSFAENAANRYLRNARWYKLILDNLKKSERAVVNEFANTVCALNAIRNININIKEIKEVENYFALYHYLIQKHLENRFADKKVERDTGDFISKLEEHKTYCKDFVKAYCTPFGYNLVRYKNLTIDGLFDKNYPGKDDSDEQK
Experiment: crRNA (strand 1, pre-loaded); Mg2+; 40 mM Tris-HCl pH 7.5, 150 mM NaCl, 6 mM MgCl2, 1 mM DTT, 0.1% Tween-20, 0.2 mg/ml BSA; 25 C; 10 min per concentration, then washed
Settings: tags: His6-TwinStrep-SUMO cleaved; N-terminal SNAP kept (SNAP-Surface 488); label: 3' end held by stalled T7 RNA polymerase

Row | Binder | Kd [nM]
1 | B1 | 26.4 ± 2.4
2 | B2 | 63 ± 12
3 | B3 | ~60
4 | B4 | 63 ± 16
5 | B5 | 19 ± 1.8
6 | B6 | 44 ± 8
7 | B7 | 5.68 ± 0.27
8 | B8 | 12.1 ± 0.7
9 | B9 | 17.7 ± 1.2
10 | B10 | 16.9 ± 2.2
11 | B11 | 9 ± 0.5
12 | B12 | 6.31 ± 0.23
13 | B13 | 21.1 ± 1.1
14 | B14 | 13.8 ± 0.6
15 | B15 | 3.99 ± 0.33
16 | B16 | 19.9 ± 1.1
17 | B17 | 18.9 ± 1.4
18 | B18 | 42 ± 8
19 | B19 | 4.7 ± 0.4
20 | B20 | 25 ± 4
21 | B21 | 34.8 ± 2.2
22 | B22 | 17.3 ± 2.5
23 | B23 | 8.3 ± 0.5
24 | B24 | 35 ± 5
25 | B25 | 56 ± 13
26 | B26 | 14.7 ± 0.8
27 | B27 | 8.54 ± 0.3
28 | B28 | 26 ± 5
29 | B29 | 13.4 ± 0.6
